One molecule from article PMC12487888 (2025) can be followed below.

This assay concerns the target EutQ (residues 1 to 229) (S. Typhimurium LT2, UniProt Q9ZFV5 1-229). Description: ITC.

Sequence of EutQ (residues 1 to 229) (Q9ZFV5 whole entry, the tested form may be a part): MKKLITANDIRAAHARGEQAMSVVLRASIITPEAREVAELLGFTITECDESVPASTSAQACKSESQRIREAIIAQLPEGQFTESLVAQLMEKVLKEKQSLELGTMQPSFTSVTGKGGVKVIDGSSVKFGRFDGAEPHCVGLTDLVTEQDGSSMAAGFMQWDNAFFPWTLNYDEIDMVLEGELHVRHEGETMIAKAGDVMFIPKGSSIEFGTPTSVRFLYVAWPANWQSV

By Kd is commonly meant the constant that tells how readily two partners part at equilibrium. MNQQDIEQVVKAVLLKMKDS [EutE^1–20 encapsulation peptide] showed a Kd of 14.1 µM.
